Here are results for 6 molecules from patent publication US20240018269A1 (MACFARLANE BURNET INSTITUTE FOR MEDICAL RESEARCH AND PUBLIC …, published 2024).

Experiment [1] deals with T1, human FcγRIIb expressed on the cell surface (human, UniProt P31994 43-310).
T1 sequence (looked up): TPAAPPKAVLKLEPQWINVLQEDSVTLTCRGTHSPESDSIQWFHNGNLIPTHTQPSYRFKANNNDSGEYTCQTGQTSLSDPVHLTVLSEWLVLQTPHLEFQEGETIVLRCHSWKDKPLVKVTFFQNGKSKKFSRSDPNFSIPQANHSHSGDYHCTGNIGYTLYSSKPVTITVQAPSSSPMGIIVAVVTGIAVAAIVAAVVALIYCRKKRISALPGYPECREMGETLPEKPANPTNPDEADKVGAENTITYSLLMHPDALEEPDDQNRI
Kind of experiment: cell-based or functional assay.

Experiment [2] concerns the target T2, recombinant soluble FcγRIIb (human, UniProt P31994 43-217).
T2 construct: extracellular domain; also called rsFcγRIIb
T2 sequence (looked up): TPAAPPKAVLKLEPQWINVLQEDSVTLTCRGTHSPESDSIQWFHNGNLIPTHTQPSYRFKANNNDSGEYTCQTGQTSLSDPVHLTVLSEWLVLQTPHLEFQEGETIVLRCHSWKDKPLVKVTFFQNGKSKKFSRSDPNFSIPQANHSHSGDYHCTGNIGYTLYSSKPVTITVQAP
The experiment in a line: BLI (Octet); anti-TNP IgG captured on TNP-BSA-biotin, rsFcγR in solution; global 1:1 Langmuir fit. The method, then:
(§1) Affinity measurements of IgG:FcR interaction using Bio-Layer Interferometry (OCTET) TNP-BSA was reacted with the EZ-Link™ biotinylation reagent (ThermoFisher Scientific) according to the manufacturer's instructions. The resulting TNP-BSA-biotin (5 μg/ml, 30 sec) was captured to ˜0.8 nm on streptavidin BLI probes using an Octet Red96 (ForteBio; Molecular Devices LLC, San Jose, CA, United States of America) then loaded with anti-TNP IgG (4 μg/ml, 75 sec). A baseline was established (60 sec) followed by the association and dissociation (90s) of a concentration series (15 nM to 20 μM) of rsFcγRIIa-R131 or rsFcγRIIb. Regeneration after each initial reaction TNP-BSA-biotin capture and the subsequent binding cycles used 10 mM HCl.

Experiment [3] has as its target T1, human FcγRIIb expressed on the cell …. The experiment in a line: flow cytometry; monomeric IgG on IIA1.6 cells expressing FcγRIIb, single site fit of MFI. On the procedure:
(§2) Antibody FcγR binding was measured using either immune complexes or monomeric IgG. Immune complexes were generated by incubating the anti-TNP antibodies (parental or mutant anti-TNP IgG) with TNP-BSA at a 2:1 ratio (40 μg/ml:20 μg/ml) for 30 minutes at 37° C. then 10 minutes at 4° C. […] The cells were washed twice, resuspended in […] PBS/0.5% BSA and 10,000 viable cells analysed in at least three experiments. Monomer IgG binding (MFI) were fitted to a single binding site model to determine binding affinity (KA). Similarly immune complex binding is reported as apparent affinity (K app).
In an attempt to further improve FcγRIIb specificity, two residues in CH2 of the Fc domain were additionally modified (see Table 1). Particularly, two mutations S267E and L328F (SELF) which have been used in the IgG1 backbone (Chu S Y et al., Mol Immunol 45(15):3926-3933, 2008) were introduced into the IgG2- and IgG4-based mAbs, IgG2-FLGG, IgG2-FEGG and IgG4-FEGG, as well as the parental IgG4 antibody. The antibodies were then tested for specificity (see FIGS. 4-6) and inhibitory potency in allergen specific (FIG. 3) and anti-IgE BAT (FIG. 7). Several effects were apparent.

Experiment [4] addresses T3, human FcγRIIIa-V158 expressed on the cell surface (human, UniProt P08637 17-254).
T3 construct: whole, on cells; Co-expressed with the FcR common γ chain (FcRγ-EGFP)
Kind of experiment: flow cytometry; immune complexes on IIA1.6 cells expressing the FcγR. On the procedure:
as §2
(In general: In flow cytometry, cells or beads pass a laser one at a time.)

Experiment [5] concerns the target T4, human FcγRIIIa-F158 expressed on the cell surface (human, UniProt P08637 17-254).
T4 construct: whole, on cells; Co-expressed with the FcR common γ chain (FcRγ-EGFP)
The experiment is described as above. On the procedure: as §2

In experiment [6] the target is T5, recombinant soluble FcγRIIa-Arg131 (human, UniProt P12318 34-217).
T5 construct: extracellular domain; Arg131 allelic form; also called rsFcγRIIa-R131
T5 sequence (looked up): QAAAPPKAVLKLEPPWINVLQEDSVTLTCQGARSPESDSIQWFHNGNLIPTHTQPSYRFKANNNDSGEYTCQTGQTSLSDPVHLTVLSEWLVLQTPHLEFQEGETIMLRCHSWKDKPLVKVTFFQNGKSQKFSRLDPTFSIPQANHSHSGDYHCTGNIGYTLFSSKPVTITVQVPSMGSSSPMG
Kind of experiment: BLI (Octet); anti-TNP IgG captured on TNP-BSA-biotin, rsFcγR in solution; global 1:1 Langmuir fit. The method, then: as §1
A general note: In BLI a coated tip is dipped into the sample, and binding shifts an interference pattern.

Experiment [7] has as its target T6, human FcγRI expressed on the cell surface (human, UniProt P12314 16-374).
T6 construct: whole, on cells; Co-expressed with the FcR common γ chain
The experiment in a line: flow cytometry; monomeric IgG on IIA1.6 cells expressing FcγRI. The method, then: as §2

T6 sequence (P12314 16-374): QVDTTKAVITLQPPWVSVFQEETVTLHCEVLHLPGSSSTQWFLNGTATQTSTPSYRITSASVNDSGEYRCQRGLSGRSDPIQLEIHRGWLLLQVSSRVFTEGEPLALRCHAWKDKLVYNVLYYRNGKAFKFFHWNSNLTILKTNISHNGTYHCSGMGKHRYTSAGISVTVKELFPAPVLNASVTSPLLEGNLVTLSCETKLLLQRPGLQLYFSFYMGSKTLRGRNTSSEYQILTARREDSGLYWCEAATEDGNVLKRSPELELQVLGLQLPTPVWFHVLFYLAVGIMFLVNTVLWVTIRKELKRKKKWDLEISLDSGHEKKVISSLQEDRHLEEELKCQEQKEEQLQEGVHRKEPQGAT
T3 sequence (P08637 17-254 F176V): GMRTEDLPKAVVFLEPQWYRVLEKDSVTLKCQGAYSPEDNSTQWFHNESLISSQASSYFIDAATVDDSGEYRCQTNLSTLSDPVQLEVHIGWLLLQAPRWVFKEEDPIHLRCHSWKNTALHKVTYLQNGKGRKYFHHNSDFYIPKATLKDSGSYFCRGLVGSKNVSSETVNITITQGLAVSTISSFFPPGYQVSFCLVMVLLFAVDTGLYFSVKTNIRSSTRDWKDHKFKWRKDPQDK
T4 sequence (P08637 17-254): as the sequence (P08637 17-254 F176V) above, with V160F counted along it

B1: chimeric anti-TNP human IgG2-FLGG (antibody)
heavy: EVQLQESGPSLVKPSQTLSLTCSVTGDSITSGYWNWIRQVPGNKLEYMGFINYSGNTYYNPSLRSRISITRDTSKNQYFLHLNSVTTEDTATYYCARANWDVFAYWGQGTLVTVSAASTKGPSVFPLAPCSRSTSESTAALGCLVKDYFPEPVTVSWNSGALTSGVHTFPAVLQSSGLYSLSSVVTVPSSNFGTQTYTCNVDHKPSNTKVDKTVERKCCVECPPCPAPEFLGGPSVFLFPPKPKDTLMISRTPEVTCVVVDVSHEDPEVQFNWYVDGVEVHNAKTKPREEQFNSTFRVVSVLTVVHQDWLNGKEYKCKVSNKGLPAPIEKTISKTKGQPREPQVYTLPPSREEMTKNQVSLTCLVKGFYPSDIAVEWESNGQPENNYKTTPPMLDSDGSFFLYSKLTVDKSRWQQGNVFSCSVMHEALHNHYTQKSLSLSLGK
light: not shown
notes: The entry includes a leader; the C-terminal LGK may differ
In the case of B1, in experiment [1], the “% inhibition of Api m 1 induced basophil activation (washed blood BAT)” value turned out to be 85% and the “IC50 of inhibition of basophil activation (whole blood BAT)” value (shortened to “IC50 of inhibition … (whole blood BAT)”) turned out to be 1.6 µg/mL. Further, the Ka in experiment [2] was 830000 M⁻¹.

B2: Anti-TNP mAb formatted as IgG2-FLGG-SELF mutant (antibody)
heavy: EVQLQESGPSLVKPSQTLSLTCSVTGDSITSGYWNWIRQVPGNKLEYMGFINYSGNTYYNPSLRSRISITRDTSKNQYFLHLNSVTTEDTATYYCARANWDVFAYWGQGTLVTVSAASTKGPSVFPLAPCSRSTSESTAALGCLVKDYFPEPVTVSWNSGALTSGVHTFPAVLQSSGLYSLSSVVTVPSSNFGTQTYTCNVDHKPSNTKVDKTVERKCCVECPPCPAPEFLGGPSVFLFPPKPKDTLMISRTPEVTCVVVDVEHEDPEVQFNWYVDGVEVHNAKTKPREEQFNSTFRVVSVLTVVHQDWLNGKEYKCKVSNKGFPAPIEKTISKTKGQPREPQVYTLPPSREEMTKNQVSLTCLVKGFYPSDIAVEWESNGQPENNYKTTPPMLDSDGSFFLYSKLTVDKSRWQQGNVFSCSVMHEALHNHYTQKSLSLSLGK
light: not shown
Take B2: the Ka in experiment [3] was 8.9e+07 M⁻¹; in experiment [6], 6.3e+08 M⁻¹; in experiment [2], 1.03e+08 M⁻¹. Moreover, the binding result in experiment [4] and in experiment [5] was “no binding” throughout. Moreover, the “IC50 of inhibition … (whole blood BAT)” value in experiment [1] came out at 0.24 µg/mL.

B3: chimeric anti-TNP human IgG2-LLGG (antibody)
heavy: EVQLQESGPSLVKPSQTLSLTCSVTGDSITSGYWNWIRQVPGNKLEYMGFINYSGNTYYNPSLRSRISITRDTSKNQYFLHLNSVTTEDTATYYCARANWDVFAYWGQGTLVTVSAASTKGPSVFPLAPCSRSTSESTAALGCLVKDYFPEPVTVSWNSGALTSGVHTFPAVLQSSGLYSLSSVVTVPSSNFGTQTYTCNVDHKPSNTKVDKTVERKCCVECPPCPAPELLGGPSVFLFPPKPKDTLMISRTPEVTCVVVDVSHEDPEVQFNWYVDGVEVHNAKTKPREEQFNSTFRVVSVLTVVHQDWLNGKEYKCKVSNKGLPAPIEKTISKTKGQPREPQVYTLPPSREEMTKNQVSLTCLVKGFYPSDIAVEWESNGQPENNYKTTPPMLDSDGSFFLYSKLTVDKSRWQQGNVFSCSVMHEALHNHYTQKSLSLSLGK
light: not shown
notes: The entry includes a leader
Regarding B3, in experiment [1], the “% inhibition of Api m 1 induced basophil activation (washed blood BAT)” value worked out at 81%. Moreover, the Ka in experiment [2] came to 800000 M⁻¹.

B4: Anti-TNP mAb formatted as IgG2-FEGG-SELF mutant (antibody)
heavy: EVQLQESGPSLVKPSQTLSLTCSVTGDSITSGYWNWIRQVPGNKLEYMGFINYSGNTYYNPSLRSRISITRDTSKNQYFLHLNSVTTEDTATYYCARANWDVFAYWGQGTLVTVSAASTKGPSVFPLAPCSRSTSESTAALGCLVKDYFPEPVTVSWNSGALTSGVHTFPAVLQSSGLYSLSSVVTVPSSNFGTQTYTCNVDHKPSNTKVDKTVERKCCVECPPCPAPEFEGGPSVFLFPPKPKDTLMISRTPEVTCVVVDVEHEDPEVQFNWYVDGVEVHNAKTKPREEQFNSTFRVVSVLTVVHQDWLNGKEYKCKVSNKGFPAPIEKTISKTKGQPREPQVYTLPPSREEMTKNQVSLTCLVKGFYPSDIAVEWESNGQPENNYKTTPPMLDSDGSFFLYSKLTVDKSRWQQGNVFSCSVMHEALHNHYTQKSLSLSLGK
light: not shown
B4: the Ka turned out to be 3.2e+07 M⁻¹ in experiment [3], 1.88e+08 M⁻¹ in experiment [6] and 2.9e+07 M⁻¹ in experiment [2]. Moreover, the binding result in experiment [7] is “no binding”. Besides, the “IC50 of inhibition … (whole blood BAT)” value in experiment [1] is 0.38 µg/mL.

B5: anti-TNP IgG2-SELF (antibody)
heavy: EVQLQESGPSLVKPSQTLSLTCSVTGDSITSGYWNWIRQVPGNKLEYMGFINYSGNTYYNPSLRSRISITRDTSKNQYFLHLNSVTTEDTATYYCARANWDVFAYWGQGTLVTVSAASTKGPSVFPLAPCSRSTSESTAALGCLVKDYFPEPVTVSWNSGALTSGVHTFPAVLQSSGLYSLSSVVTVPSSNFGTQTYTCNVDHKPSNTKVDKTVERKCCVECPPCPAPPVAGPSVFLFPPKPKDTLMISRTPEVTCVVVDVEHEDPEVQFNWYVDGVEVHNAKTKPREEQFNSTFRVVSVLTVVHQDWLNGKEYKCKVSNKGFPAPIEKTISKTKGQPREPQVYTLPPSREEMTKNQVSLTCLVKGFYPSDIAVEWESNGQPENNYKTTPPMLDSDGSFFLYSKLTVDKSRWQQGNVFSCSVMHEALHNHYTQKSLSLSLGK
light: not shown
As to B5, the figures for the Ka in experiment [6] and in experiment [2] were 9.1e+07 M⁻¹ and 3.4e+07 M⁻¹, respectively.

B6: chimeric anti-TNP human IgG4-SELF (antibody)
heavy: EVQLQESGPSLVKPSQTLSLTCSVTGDSITSGYWNWIRQVPGNKLEYMGFINYSGNTYYNPSLRSRISITRDTSKNQYFLHLNSVTTEDTATYYCARANWDVFAYWGQGTLVTVSAASTKGPSVFPLAPCSRSTSESTAALGCLVKDYFPEPVTVSWNSGALTSGVHTFPAVLQSSGLYSLSSVVTVPSSSLGTKTYTCNVDHKPSNTKVDKRVESKYGPPCPSCPAPEFLGGPSVFLFPPKPKDTLMISRTPEVTCVVVDVEQEDPEVQFNWYVDGVEVHNAKTKPREEQFNSTYRVVSVLTVLHQDWLNGKEYKCKVSNKGFPSSIEKTISKAKGQPREPQVYTLPPSQEEMTKNQVSLTCLVKGFYPSDIAVEWESNGQPENNYKTTPPVLDSDGSFFLYSRLTVDKSRWQEGNVFSCSVMHEALHNHYTQKSLSLSLGK
light: not shown
Consider B6, for which, in experiment [1], the “IC50 of inhibition … (whole blood BAT)” value amounted to 1.1 µg/mL.
